# Reference: the RNAGym collection of RNA variant scans (doi:10.1093/molbev/msab373)
# B1: Azoarcus group I ribozyme (parent)
# chain: GUGCCUUGCGCCGGGAAACCACGCAAGGGAUGGUGUCAAAUUCGGCGAAACCUAAGCGCCCGCCCGGGCGUAUGGCAACGCCGAGCCAAGCUUCGGCGCCUGCGCCGAUGAAGGUGUAGAGACUAGACGGCACCCACCUAAGGCAAACGCUAUGGUGAAGGCAUAGUCCAGGGAGUGGCGAAAGUCACACAAACCGG
# Variants of: B1
# Test: reverse-splicing fitness (ratio to wild type); higher = more active; in vitro selection; Mg2+ level not given
# How it was run: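 An in vitro group I ribozyme library with randomized positions was T7-transcribed and gel-purified. In triplicate, 10 pmol RNA in EPPS pH 7.5 was reacted with 50 pmoles of a 30-nt RNA substrate for 1 h at 37 °C across several added MgCl2 levels (1–48 mM), then stopped with EDTA. Products were reverse transcribed from a substrate-complementary primer, PCR-amplified and sequenced (HiSeq 4000). Fitness is a variant's read proportion after selection over that before, normalised to wild type.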
row,Variant,reverse-splicing fitness
1,C82G A111U A120G A145G C150G C169A U176C,0.0126
2,C82G A111U A120G A145G C150G C169A U176A,0.0133
3,C82G A111U A120G A145G C150G C169A U176G,0.00831
4,C82G A111U A120U A145G C150U C169A U176G,0.00276
5,C82G A111U A120U A145G C150U C169A U176C,0.00451
6,C82G A111U A120U A145G C150U C169A U176A,0.0082
7,C82G A111U A120U A145U C150A C169G,0.00289
8,C82G A111U A120U A145U C150A C169U,0.00264
9,C82G A111U A120U A145U C150A C169A,0.00224
10,C82G A111U A120U A145G C169U U176C,0.004
11,C82G A111U A120U A145G C169U U176A,0.00386
12,C82G A111U A120U A145G C169U U176G,0.00203
13,C82G A111U A120U A145G C150U C169G U176G,0.00266
14,C82G A111U A120U A145G C150U C169G U176C,0.00575
15,C82G A111U A120U A145G C150U C169G U176A,0.00833
16,C82G A111U A120U A145U C150G C169G U176A,0.0031
17,C82G A111U A120G C169A U176A,0.017
18,C82G A111U A120G C169A U176G,0.00437
19,C82G A111U A120G C169A U176C,0.0215
20,C82G A111U A120U A145G C150A U176C,0.00757
21,C82G A111U A120U A145G C150A U176A,0.00769

row,Variant,reverse-splicing fitness
1,C82G A111U A120U A145G C150A U176G,0.00383
2,C82G A111U A120U A145C C150G U176A,0.00296
3,C82G A111U A120U A145C C150G U176C,0.00425
4,C82G A111U A120U A145C C150G U176G,0.00236
5,C82G A111U A120U A145C,0.0386
6,C82G A111U A120U A145U,0.0429
7,C82G A111U A120U A145G,0.043
8,C82G A111U A120U A145U C150G C169A U176G,0.00233
9,C82G A111U A120U A145U C150G C169A U176C,0.00246
10,C82G A111U A120U A145U C150G C169A U176A,0.00343
11,C82G A111U A120U A145G C150A C169G U176C,0.00577
12,C82G A111U A120U A145G C150A C169G U176G,0.00257
13,C82G A111U A120U A145G C150A C169G U176A,0.00878
14,C82G A111U A120G A145G C150A U176A,0.011
15,C82G A111U A120G A145G C150A U176C,0.0219
16,C82G A111U A120G A145G C150A U176G,0.00873
17,C82G A111U A120U A145G C150G C169U U176C,0.00721
18,C82G A111U A120U A145G C150G C169U U176G,0.00391
19,C82G A111U A120U A145G C150G C169U U176A,0.0076
20,C82G A111U A120G A145U C150A U176G,0.00661
21,C82G A111U A120G A145U C150A U176A,0.0108

row,Variant,reverse-splicing fitness
1,C82G A111U A120G A145U C150A U176C,0.0173
2,C82G A111U A120U A145C C150G C169U U176A,0.00273
3,C82G A111U A120U A145C C150G C169U U176C,0.00279
4,C82G A111U A120U A145C C150G C169U U176G,0.00252
5,C82G A111U A120G C169U U176A,0.0197
6,C82G A111U A120G C169U U176G,0.00589
7,C82G A111U A120G C169U U176C,0.0179
8,C82G A111U A120G A145G U176G,0.0077
9,C82G A111U A120G A145G U176C,0.0176
10,C82G A111U A120G A145G U176A,0.0125
11,C82G A111U A120U A145C C150A C169A U176C,0.00215
12,C82G A111U A120U A145C C150A C169A U176G,0.0022
13,C82G A111U A120U A145C C150A C169A U176A,0.00214
14,C82G A111U A120U A145G C169A U176C,0.00529
15,C82G A111U A120U A145G C169A U176A,0.00574
16,C82G A111U A120U A145G C169A U176G,0.00196
17,C82G A111U A120G A145U,0.0161
18,C82G A111U A120G C150G C169U U176C,0.0123
19,C82G A111U A120G C150G C169U U176G,0.00592
20,C82G A111U A120G C150G C169U U176A,0.00893
21,C82G A111U A120G C150A U176C,0.0195

row,Variant,reverse-splicing fitness
1,C82G A111U A120G C150A U176G,0.0103
2,C82G A111U A120G C150A U176A,0.0143
3,C82G A111U A120G C150U,0.0127
4,C82G A111U A120G C150G,0.00634
5,C82G A111U A120G C150A,0.00998
6,C82G A111U A120G A145G C150U C169U,0.0112
7,C82G A111U A120G A145G C150U C169A,0.0121
8,C82G A111U A120G A145G C150U C169G,0.0128
9,C82G A111U A120U A145C C150A C169A,0.00264
10,C82G A111U A120U A145C C150A C169U,0.0027
11,C82G A111U A120U A145C C150A C169G,0.00272
12,C82G A111U A120G A145U U176A,0.0138
13,C82G A111U A120G A145U U176G,0.00635
14,C82G A111U A120G A145U U176C,0.0193
15,C82G A111U A120G A145G C169U U176G,0.00501
16,C82G A111U A120G A145G C169U U176A,0.0198
17,C82G A111U A120G A145G C169U U176C,0.0161
18,C82G A111U A120G A145G C150A C169U,0.00945
19,C82G A111U A120U A145G C150G U176C,0.00861
20,C82G A111U A120U A145G C150G U176G,0.00462
21,C82G A111U A120U A145G C150G U176A,0.00648
